What was measured:
[1] = tested on: Fusarium oxysporum; test: Minimum inhibitory concentration (MIC) test on fungal pathogens; assay type: cell-based; parameters: key: xx = no growth/strong inhibition; x = small inhibition; details: start concentration 100 μg/ml
[2] = Reducing end assay, specific chitinase activity of expression and purification fractions; assay type: biochemical; details: chitin powder, 16 h at 30° C.
Description: Integrity and correctness of the constructs was confirmed by colony PCR and Sanger-sequencing. All constructs were transformed into E. coli BL21 and expressed recombinantly. Expression levels of the target enzymes were determined densitometrically after immunoblot detection for cytosolic and secreted expression. Enzymatic activity was determined for all samples using a reducing end assay. […] Furthermore, it was confirmed that these enzymes are efficiently released into the culture supernatant, rendering cell lysis unnecessary for future production cycles.
A two-step purification of the selected recombinant enzymes with PelB signal peptide form the culture supernatant was carried out with an initial ammonium sulfate precipitation step and a sequential IMAC purification of the solubilized protein precipitate. Elution fractions were pooled and an SDS-PAGE and immunoblot was prepared loading the same volume for each sample (FIG. 4). Expression levels of the five chitinases varied largely, and C1 was detected in much greater abundance relative to the others. […] The observed molecular weight of all enzymes in SDS-PAGE gel and immunoblot was not in accordance with the expected theoretical molecular weight taking into account that a 6×His tag was added C-terminally to the enzymes and in general, bands for all enzymes were detected at a higher molecular weight. For all samples, unspecific bands could detected at ˜25 kDa and ˜50 kDa after IMAC purification, most likely representing host cell protein-contaminations. The amount of protein in the culture media, ammonium sulfate concentrates and the final dialyzed elution fractions was determined using the BCA assay and the same fractions were incubated with chitin powder for 16 h at 30° C. followed by the quantification of reducing sugars to measure specific chitinase activity (Table 4.2). Thereby it was confirmed that all target enzymes were successfully enriched during purification according to the specific activity.
For the determination of enzymatic activity of recombinant chitinases, a reducing end assay was carried out [Svein et al., Carbohydr Polym, 2004. 56(1): p. 35-39.]. Fractions containing chitinases were incubated with 5% (w/v) chitin powder extracted from shrimp shells (˜400.000 g/mol; Carl Roth) in MAT buffer for 2 h in an overhead shaker at ambient temperature (standard conditions). Samples were centrifuged at 13000×g for 2 min and 40 μl of the supernatant was mixed with 40 μl 0.5 M NaOH and 40 μL of a reagent containing 1.5 mg/ml 3-Methyl-2-benzothiazolinonhydrazon and 0.75 mg/ml Dithiothreitol. Samples were incubated at 80° C. for 15 min and then thoroughly mixed with 80 μl of 0.5% (w/v) FeNH4(SO4)2)×12H2O, 0.5% (w/v) sulfamic acid and 0.25 M HCl. After cooling down to room temperature, 100 μl of the samples were measured at 620 nm. A calibration curve of N-acetyl-glucosamine was constructed freshly for each measuring cycle. One unit [U] was defined as the amount of enzyme required to release 1 μmol of reducing sugars per hour.

[3] = Substrate specificity, reducing end assay; assay type: biochemical; details: in % activity of chitin powder; 16 h at optimum conditions, 50 mg/ml substrate
Description: (§1) Different chitinous substrates were tested to assess the substrate affinity of the novel chitinases relative to untreated chitin powder. […] As expected, the conversion of colloidal chitin is more efficient compared to chitin powder as it provides an overall smaller particle size and thereby larger surface area. Chitosan powder (degree of acetylation: 15%) was also degraded efficiently and high chitosanase activity was observed especially for C1, C3, C4 and C5. Merely basal activity was detected when cellulose was utilized as a substrate for all enzymes.
The preparation of colloidal chitin was similar to the method described by Murthy and Bleakley with some minor differences [Murthy et al., Microbiol., 2012. 10(2): p. 1-5.]. Chitin powder (Carl Roth) was dissolved in concentrated hydrochloric acid (HCl) (5 g in 100 mL) and stirred at 4° C. for 24 h, after which the mixture was centrifuged at 4000×g for 15 min at 4° C. The precipitate was washed to neutral pH with distilled water and stored at 4° C.
(§2) Enzyme samples were incubated at different temperature (10-60° C., 10° C. increment) and pH (4-11, increment 1) using different buffer systems (Acetate, Tris-HCl, MES, total molar concentration 100 mM), as well as NaCl content (0, 1. 2.5, 5, 10 and 20% w/v) to determine optimum reaction conditions. All experiments were carried out at 1.0 ml scale using 2 μM of the respective enzymes and a 5% (wv) suspension of chitin powder extracted from shrimp shells (˜400.000 g/mol; Carl, Roth) in 100 mM MAT buffer. For the determination of the substrate specificity, chitin powder (5% w/v), glycol chitin (10% v/v), colloidal chitin (5% w/v), chitosan [DA 15-25%, medium molecular weight, Sigma-Aldrich] (5% w/v) and microcrystalline cellulose powder (Sigma Aldrich) (5% w/v) were investigated, respectively. The effect of several potential co-factors on activity was elucidated at a concentration of 1 mM. Additionally, the effect of detergents [SDS 0.5% (w/v), Tween-20 and Triton X-100 both at 0.5% (v/v)] and chemicals (Imidazole 100 mM, EDTA 1 mM) on enzymatic activity was assessed. Samples were incubated in a thermomixer for 16 h at 900 rpm. After incubation, samples were analyzed using the enzyme assay. Thermostability was assessed after incubation of recombinant chitinases at 60° C. for different durations followed by the quantification of residual enzyme activity under standard assay conditions.

[4] = Substrate specificity, reducing end assay; assay type: biochemical; details: in % activity of chitin powder; 16 h at optimum conditions, 50 mg/ml substrate; remark: listed apart in the source
Description: as §1, §2

[5] = Dialysed elution fraction after IMAC

Row | Molecule | growth inhibition of Fusarium oxysporum in the MIC test [1] | Specific activity ([2]; Culture supernatant fraction) | Specific activity [2, 5] | Relative activity, Colloidal chitin [3] | Relative activity, Cellulose [4] | Relative activity, Chitin [4] | Relative activity, Chitosan [4]
1 | Chitinase 2: chitinolytic enzyme from P. orarium, SEQ ID NO: 2, recombinant with PelB signal peptide and 6×His tag (protein, listed as Photobacterium orarium, PelB signal peptide; 6xHis tag; Chitinase 2) MATANYNPDGVYSAGEQVIYQGATYQALRSTENEAPDTYLGDAWQQVNAQNVTSSTTPTYPAYQSSAVYVGGDHVSYNSQIYKAKWWTQGEAPDATPGTGVWEWVSADNNPDPGPGPDPDPTPEPTPANGIIGQNPDGSYIMSKTYLDAREAELTSSPEFAAVLASISTRDNAVVEAVVPGLSTNPDNVKRVEALISEQKWDALFPERNVVYTYSNFLKAVAKFKGFCATYTDERAAQSDAICAKSLAVMFAHFTQETGAHNPHSPYEEWRQGLFFVREAGCSEEASSCGYNSECAASNWQTEQWPCGTNPDGSYVKYFGRGAKQLSYHYNYGPFSDFIFNDVNVLLQDPDRVADSWLNLASAVFFFVYPQPPKPSMLHVIDGTWQPTAADIAEKRVPGFGVTTMIINGGIECTLDTEKPQSVNRIKYYRGHAAALGVAIPADEQLGCAGMKAFKKTGDSTFGLYWENDWSYYPDNPGGSSFACRIESGYQTAHTTLKKGDYAKCIQKYYGVTIE | xx | 0.04 U/mg | 5.36 U/mg | 191.4 ± 4.7% | 10.0 ± 1.1% | 100% | 71.4 ± 6.7%
2 | Chitinase 3: chitinolytic enzyme from P. orarium, SEQ ID NO: 3, recombinant with PelB signal peptide and 6×His tag (protein, listed as Photobacterium orarium, PelB signal peptide; 6xHis tag; Chitinase 3) MALAAPGTPQLAWMETDYAIVEVDQAATAYKDLVTVKNAADVPVAWQRYSGETADHWKVKLNGNVAFEESINPASSGAGSTTLSITQGGQYALTVELCSGSGAEEACSSSPATNIVVADTDGSHLDPLPMNVDPNNGTYSTPADTVVGAYFVEWGVFGRKFTVDKIPAQNLTHILYGFIPVCGPNESLGEIESGNSLAALNRACAGTPDFEVAIHDPWAAVQMPQPQSGHTYSTPYKGNYGQLMALKQRYPDLKVIPSIGGWTLSDPFFSFTDKSKRDVFVASVKKFLQTWKFFDGVDIDWEFPGGKGANTTLGDPVNDGPAYVALMRELRTMLDGLEAETGRQFELTSAIGVGYDKIDVVNYAEASQYMDYIFNMSYDFYGGWSNVTGHQTALNCGSHLTADQCNGTGVDENGEPRQGPAYTTAHGVERLLAQGVPANKLVVGAAMYGRGWTGVTQASMTDPSNPMTGVGNGAVAGSWEAGVIDYKDVVTRYENKAGVVLGYDEQAEAPWAYDPSNGDLVTYDSPRSIMAKGQYVRDLGLAGLFAWEIDADNGDILNAMQESLAGAPAGNRAPVARAGSDQQVNTAATVTLNGSSSTDSDGQIAGYQWVQTSGPALTLNGANTASATISVPDVTVDTQYVFTLTVTDNEGATATDSITVTAKAPGAQNTAPVASLTGPGTANADDVITLDASQSTDADGDTLTYDWTVPAGVNAVINGSSLSFTADSYTTDTALSFSVSVSDGTASDAASLTVTIAKDESGTGGEGDFPAYVEGTAYQAGDQVSNGGVNFECKPYPYSGWCSGAAWAYEPGVGVYWQDAWTQLIE | xx | 0.13 U/mg | 8.13 U/mg | 133.4 ± 6.5% | 9.4 ± 0.9% | 100% | 113.4 ± 9.0%
3 | Chitinase 5: chitinolytic enzyme from P. orarium, SEQ ID NO: 5, recombinant with PelB signal peptide and 6×His tag (protein, listed as Photobacterium orarium, PelB signal peptide; 6xHis tag; Chitinase 5) MAMGWSQININGVQKWEEAYSLNVDAANEIITIGAADTAGALYASQSLLQLVDGNKVPEVQITDAPRFAYRGFSVDAVRNFRTKDAIIQLLDQMAAFKLNKLHLRLADDEGWRIEIAGLPELTDVGATRCHDPEEKACILPFLGAGPDGSPESNGYYTATDYQDILSHAAALNIEVVPEIDIPGHAHAAIKAMEARYDHYAAQGNMAEANKYLLTDFNDTTQYLSVQMFTDNAINVCMESSYNFVDAVVSGLVSLHQGVQPLKTFHFGGDEIAGAWINSPACQDFIANNTDGVHSVSDLSRYFVERISVITANYGLDMAGWEDGLMHDGQVYPRSQMANNQLWGNAWQNIWEWGVADRAYNLANNDYKVVYNHATHLYFDHPYEPDPNERGYYWAPRFTDTRKTFGFMPDDVFANADFTRAGAPITKAEVVASAGVKKLLKPENVLGLQGSLWAEAVRTEDQFEGMIFPRVLGLAERAWHTATWEANDNAGIALDETGRNADYNHFANLLGQKVLPKLEQAGIAFNLPVPGGVIENGVLQANSTFPGLTIEYSTDQGTSWQSYDHLNPPAVAAGVQLRTVSGQRTSRVTTVNIE | xx | 0.03 U/mg | 6.67 U/mg | 164.1 ± 2.8% | 11.2 ± 1.1% | 100% | 117.8 ± 1.7%
4 | Chitinase 4: chitinolytic enzyme from P. orarium, SEQ ID NO: 4, recombinant with PelB signal peptide and 6×His tag (protein, listed as Photobacterium orarium, PelB signal peptide; 6xHis tag; Chitinase 4) MAQAAANCRPDGLYQTPGVTVPYCTVYDQDGREKMGVDHPRRVIGYFTSWRSGNDPQSSYLVNDIPWDSLTHINYAFVSIGSDGKVNIGNVNNPDNPAVGKEWPGVEIDPALGFKGHFGALATAKAQHGVKTLISIGGWAETGGHFDDNGNRVADGGFYTMTTNADGSINHQGIQTFADSAVAMMRQYKFDGLDIDYEYPTSMQGAGNPDDFAYSDAMRPHLMKSYHELMKVLREKLDQASAQDGHHYMLTIAAPSSGYLLRGMETMSVTKYLDYVNIMSYDLHGAWNDYVGHNASLFDSGLDAELEAGNVYGTAQYKKTGYLNTDWAYHYFRGSMPAGRINIGVPYYTRGWQGVTGGTNGLWGKAALPNQSDCPTGTGAGTSNCGYGAIGIDNMWHDKDANGNEMGAGSNPMWHAMNLANGVYGSYTAAYGLDPVNDPQDALTGTYTRHYDSVSVAPWLWNADKKVFLSTEDKESINTKADYVIEQGIGGIMFWELAGDYSCYNLDANGNRTTVDPTENACKTGNGEYHMGDTMTKAIHNKFATATPYGNTLAEGAIPTEAVNIDVSVTGFKVGDQNYPLNPTMTLTNKTGQTLPGGTEFQFDIPTSTPDNMSDQSGANLQVISSGHTRGDNIGGLDGNFHRVAFTLPSWKQLGNNESFELTLNYFLPISGPANYSVRVNNADYALAFEQPDLPIADLSNGGGDNGGGDGNNGDCVTTGVNTYPNWPQTDWAGNPSHAGTGDKIIYNGAVYQAKWWTNSVPGSDGSWDTVCTVQIE | xx | 0.07 U/mg | 6.07 U/mg | 117.7 ± 6.3% | 10.4 ± 0.9% | 100% | 141.3 ± 5.5%

From patent publication US20240287489A1, “CHITINOLYTIC ENZYME-BASED PLANT PROTECTION AGENTS” (GLOBACHEM NV, priority 2021, published 2024)
